Data published in the DeepSol protein solubility set.

Test: soluble on expression in E. coli; label from the status in PepcDB or PDB records

Sequence | soluble on expression in E. coli
GAMGSMSVSEANGTETIKPPMNGNPYGPNPSDFLSRVNNFSIIESTLREGEQFANAFFDTEKKIQIAKALDNFGVDYIELTSPVASEQSRQDCEAICKLGLKCKILTHIRCHMDDARVAVETGVDGVDVVIGTSQYLRKYSHGKDMTYIIDSATEVINFVKSKGIEVRFSSEDSFRSDLVDLLSLYKAVDKIGVNRVGIADTVGCATPRQVYDLIRTLRGVVSCDIECHFHNDTGMAIANAYCALEAGATHIDTSILGIGERNGITPLGALLARMYVTDREYITHKYKLNQLRELENLVADAVEVQIPFNNYITGMCAFTHKAGIHAKAILANPSTYEILKPEDFGMSRYVHVGSRLTGWNAIKSRAEQLNLHLTDAQAKELTVRIKKLADVRTLAMDDVDRVLREYHADLSDADRITKEASA | soluble
QPAHSLWLDLTQGEEALLKGMKEMHRRNARLALKRVALSVEGEEAFAEFYRLFTETNRRARLLQHDEAYYRAVLKEMNQPLGEAFLALARKDGEALAAGLFVAFAGKVAYLYGGSTRKHPEAKAPMGMHLAAIRHGMARGYRVYDLWGIPKNPRGSHAEGIHRFKEGFGGQRVQFPA | not soluble
MLNSLEAYNENKFIVFGINDNKEIIGLEKNMFDDAHYQNIIDEYINPRPKIETGQIEYNDEKIGYIAINSNNLETPYELKKELRIKKSKSSLSKGLSFIRKGSTNTPIIQEEREKLILKKTEKNPNNKNLFTALNQKNHAIEEIYYKDNKKSGRKKLDPSNNNGRFTIGELSYEFEMILDVASNEIARIMKTDTIKVARIKNYKDNDIYYELQENLKSPNEVVKKLDTSSRSRDFTLKDLGILINKHGRIAEIFFKEIKSESHGSEENIVEIEWNIPDTKLEHHHHHH | not soluble
TGCSVTATRAEEWSDGFNVTYSVSGSSAWTVNLALNGSQTIQASWNANVTGSGSTRTVTPNGSGNTFGVTVMKNGSSTTPAATCAGS | soluble
KVILKEDAEMLDEVVVTGYGMSQKRSLMTNSISKLDDKVLQNAAMSNAAQSLQGTVSGLRVTNTSGKPGSSPNIVLRGGASINKNLEGPLVVVDGLVRSMDDINPSDIESIQVLKDAASTAIYGARANNGVILVTTKKGVEGR | not soluble
MGSSHHHHHHSSGLVPRGSHMASNVKKFPEGFLWGVATASYQIEGSPLADGAGMSIWHTFSHTPGNVKNGDTGDVACDHYNRWKEDIEIIEKLGVKAYRFSISWPRILPEGTGRVNQKGLDFYNRIIDTLLEKGITPFVTIYHWDLPFALQLKGGWANREIADWFAEYSRVLFENFGDRVKNWITLNEPWVVAIVGHLYGVHAPGMRDIYVAFRAVHNLLRAHARAVKVFRETVKDGKIGIVFNNGYFEPASEKEEDIRAVRFMHQFNNYPLFLNPIYRGDYPELVLEFAREYLPENYKDDMSEIQEKIDFVGLNYYSGHLVKFDPDAPAKVSFVERDLPKTAMGWEIVPEGIYWILKKVKEEYNPPEVYITENGAAFDDVVSEDGRVHDQNRIDYLKAHIGQAWKAIQEGVPLKGYFVWSLLDNFEWAEGYSKRFGIVYVDYSTQKRIVKDSGYWYSNVVKNNGLED | soluble
MAVRKLTTGKWLCECYPAGRSGRRVRKQFATKGEALAFERHTMEETEAKPWLGESVDRRTLKDVVELWFKLHGKSLTAGQHVYDKLLLMVDALGNPLATDLTSKMFAHYRDKRLTGEIYFSEKWKKGASPVTINLEQSYLSSVFSELSRLGEWSYPNPLENMRKFTIA | not soluble
MSQQELFFEVRRNRSHIYLDAEESHSVMELKLMLAGITRDPVNHMELWKLDEDGNKSQLLHDTATLSDAGFSSTNAKAQCPAALGLRLTNAEEHLTISDVSTAPPIPDTMRQEQAPQE | not soluble
MSNTLFDDIFQVSEVDPGRYNKVCRIEAASTTQDQCKLTLDINVELFPVAAQDSLTVTIASSLNLEDTPANDSSATRSWRPPQAGDRSLADDYDYVMYGTAYKFEEVSKDLIAVYYSFGGLLMRLEGNYRNLNNLKQENAYLLIRR | soluble
MIAIISLPGISMASSKSLQQAIANIKIWHKGEQRAPHKPLLLLYVLAGYLNGHPRLFDYGTEIYEPLHSLLERFGPQRSQYRPDMPFWRLQGDGIWQLHNAERCSTAGSSRQPPVKELNEYHVAGGFDEQHYALVTGNKKLINTLAQQILEAHFTESIQEEIADELGFDLQQTRKQRDPLFRKNVLRAYNYQCAICGFNMRHDDTTVALEAAHIKWKQHGGPCEIPNGLALCAIHHKAFDKGSIGLDENMRVLVSDAVNGGGIVERLFWDFDGKTIALPQVRKNYPYEGFVGER | not soluble
MSLKLVEILVLGQVLRLNVPIEQEELLRQAARNLDILVSEMKEKTGLIQLDRVLSIVALNLSFELSQEKNKTAKIEEVLRTGIQQLDHSLENIRVTKEPH | soluble
MFRRLILRQAAAVAAESKIACHHTVHGFEQRRGLHSRNEKAMEYVAKGWSAIKEVERVIDYCELNDRRLIPLLRGAKENFELALEADNLNTHARYWLSKLHLKYHVPGACKAVGAALLVEAADMGNADAQYELGCRLRVENDHVQSDQQAFHYIENAVDQLHPGALYLLGIVYLTGDCVKQDVDSAIWCFHRASEKGHAGAAIAYGSLLLRGVQVPESLTKLNVVGVSPPKRARKNLENPEMNPLEMAKEQFQIAARAGCDLGLKWLQRVEQEEKLLMREQDNECAYV | not soluble
GAMGSEESLKHATRIIDEVVSKFLDDLGNAKSHLMSLYSACSSEVPPGPVDQKFQSIVIGCALEDQKKIKRRLETLLRNIDNSDKAIK | soluble
MSSKPKYVQDQEMIPGVYWVGIVDWMVRIFHGYHTDEGSSYNSYFIDDECPTVIDSVKYPFAEEWLSRIAACCPLDKIKYVVMNHAEGDHASSLKDHYHKFTNATFVCTKKCQEHLKILYGMEKATWLIVDDKYTLKIGKRTLKFIPVPLLHWPDSTFTYCPEDKILFSNDGFGQHYATSRRWADECDVSHVMHLFKEYTANILGLFSAQMRKALEVASTVEIKYILSAHGVSWRGDAMGLAIAEYDRWSKGQHCQKKVTVVLDSMYGTTHRMALALLDGARSTGCETVLLEMTSSDITKVALHTYDSGAVAFASPTLNNTMMPSVAAALNYVRGLTLIKGKPAFAFGAFGWSNRAVPDIVAELRDGCKADVYDEKGITFKFNYTEELLEQAYNAGVDLGKRAIAYCEKNAPKQ | soluble
METETATTPTGNTEPTAAASAEPPKSDKVTVRLRNIADAPVLKNKKMVVNPTDTVASFILKLRKLLNIQANNSLFLYIDNTFAPSPDTTFETLSRCYSVKITDKEILELQYSITPAYG | soluble
MGSDKIHHHHHHAEPVADPMEEEGISVVRYDKLLDEYVRFNSFSALQKMNLEYALPTKLLIEDVLAIGQVSDDHIFQRLKTFYSDTTLVRLIEDVEAKYPELESVEKNLTKGFGKLQKEIPDIMIPMIYTQISAFNESIVLSDSVLGISLDKYMGEDYPLYKRFYYNYQRRTMRPDRIVPDCLVFYLMSQYPFPMDYSRTLLDVMMHYGKINYVVQHLLDYSSSEEALGYSDLEREWCKENQQQMWRYILEQDHLHATDPMVVRQYTRPAPFTNTLGENAPSMVGTWIGTKIITSYMKHHKKTTLRQLLEMSDYERMFTESRFNP | not soluble
MYHHGFHYYSTNNSHSYSRTRNPPKSWNLGPHELGSSTDPENRAMQESIINSVSEQTLQSWIDFREEINKKNLLLRNKLKIPSEKIDDKYHTFPEKKQSDYADAEIYAGSDASQPSRNEYDRSKYVLNRKVRCAPTEIITDSSQSPGASPSSDQIFIDDSQPSTTKRRWVISEPDDNSDKHVSSSENHQQREKIISPTEKTLQKSTSSNSSPTLKLFVTVPSSSNQECILHKYGHCIAPQICPFAHDGVVRKLEKKTVTAPFWQRKLPNISLCPGYPTLKCWDHKCGKRHILYPSDNI | not soluble
MAHHHHHHMALQENRDSYKVKALSLSEFVQQCSDCHQLCLEKTVRVLDNRSRAPRGWEALFNSVAEERRSEDLDLCESRCRYMQTTCPSQDKVQQYEQALAAASLKLKKSTPPNPSVLQDASRCEHAVEVFSNVLFALAHKPSKVSFPTKDLKTGGNTDAESHAGAPTEAHRKVLEGAKNMDNDVSCRSSKLRHERFGSKAQDVASSTGSSLAPDTAAASPASSGTTPKW | not soluble
GMGSSRKVIITCAVTGAIHTPSMSPYLPVTPDEVAQASIGAAEAGAAVIHLHARDPRDGRPTQDPAAFAEFLPRIKSNTDAVINLTTGGSPHMTVEERLRPATHYMPELASLNMGSMNFGLYPMLERFKEFAHGWEREHLERSRDLVFKNTFADIEFILKTCGGNGTRFEFECYDTSHLYNLAHFVDRKLATPPFFVQTVFGLLGGIGPHPEDLAHMRRTADRLFGADYVWSILGAGRHQIPLASIGAAQGANVRVGLEDSLWIAPGELAETNAAQVRKIRQVIEGLSLEVASPAEARTMLGLKGPQNVNF | soluble
MAFNDCFSLNYPGNPCPGDLIEVFRPGYQHWALYLGDGYVINIAPVDGIPASFTSAKSVFSSKALVKMQLLKDVVGNDTYRINNKYDETYPPLPVEEIIKRSEFVIGQEVAYNLLVNDCEHFVTLLRYGEGVSEQANRAISTVEFVTAAVGVFSFLGLFPKGQRAKYY | not soluble
GPGSMMVGKAPKNCVHIGLCVLYSGSGFRGLQIQVHAPTCHTVEGVLIQALKDAGIIADVVRGRPAGEHHHFARSCRTDRGVHAIRNMVSLFVPKEVFEKMGQAEGICEKLNRQLPATVRVANVMQLSGSFIPRHCCNRRVYRYMLPLYALLPPCDTWAAVDKYYPGCLAHVQALAEEAAAAQRTQYSIPYVDLEKMNAVARPADAQALPSSWLRDLKASADRCNQVLRSHFTGSRRYHNFSVDIDSNRSGVSAKVIQPTTDEALRAIYRSEVCPRLFFFPCSTKGGAADEAPVPVHGESRTEYDMNLLRYPPRTPTSPEDTVGGSAAASTTTTPTGTSTTPATCLSPNTTALPFLFFQIEGCSFLLNMIRKIIGSVLAVCRGARESILEDAFSPECRVTTPLAPGPYLYLAQSTYHGYDRSIGGAGNAHQPGRLKTVQDAWGGAVSEAAELFAFHKIAADIVDVDLNAMPPLDDILAARDRAREASRPHTAVEDAHLAEMKEYKPVLPTRIPWPASSDMTVFLRLLRVHNWNVRPIQLDPACKALREIKNRKERLTASSVAAAASPGAEASKAGEADGGDTRANEATVEQAATPTGDAWRIRSEGSSTGGVPEGGEDGWLYVADTPEEASVQRQAYFASLWKRARPWEYDDATGKSLIHGGEVGTEDDFDDGDGSTARPRRHRRV | soluble
MGSDKIHHHHHHMQCIRVGVIGAGGVAQVEHIPNLLKLHRQFKILGVYDPSRKVRAFVGEEFGLETFSDLDALLAMPLDAVVIASPDALHREQSLAAFARGLHVFCEKPLCYGAQDIDQLIAARDRAGKVLQVGYMKRFDPSYEAALNMLPGTARTLRSVSVEVNDPDAWPFIRHASTCRGDDVAAELIASTEARQREQVDRAVPGLDDPHAFRGFVGAYSSSIVHDVNAVHGLLDALGVADGEIVGASLFAKGEAGQGTVRLLDGQALWTMAHIATPGLPDYRERITLHFDDASLELEFPSPYLNHQPTRLTIRTGDGHTLSSRDIRSGYEEAFVEELKGFWSAIVEGTAVRNTAEHARRDMTLLAGLTRHHLDQSKQSGVRP | not soluble
MGSDKIHHHHHHMDKPFRRILLIKMRFHGDMLLTTPVISSLKKNYPDAKIDVLLYQDTIPILSENPEINALYGIKNKKAKASEKIANFFHLIKVLRANKYDLIVNLTDQWMVAILVRLLNARVKISQDYHHRQSAFWRKSFTHLVPLQGGNVVESNLSVLTPLGLDSLVKQTTMSYPPASWKRMRRELDHAGVGQNYVVIQPTARQIFKCWDNAKFSAVIDALHARGYEVVLTSGPDKDDLACVNEIAQGCQTPPVTALAGKVTFPELGALIDHAQLFIGVDSAPAHIAAAVNTPLISLFGATDHIFWRPWSNNMIQFWAGDYREMPTRDQRDRNEMYLSVIPAADVIAAVDKLLPSSTTGTSL | not soluble
